Laboratory results published in patent publication US12281340B2, “Method of producing N-acyl-amino group-containing compound” (AJINOMOTO CO., INC., priority 2018, dated 2025).

Experiments:
Type in all cases: biochemical
Set-up in all cases: key: +: Detected; −: Not detected
[1] = Synthesis of N-caprinoyl-amino acid derivative, N-caprinoyl-D-amino acid and N-caprinoyl-peptide using purified acylamino acid synthetase, UPLC-MS detection; conditions: +ATP
Procedure, shortened: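 Purified enzyme (50 μg/mL) was incubated with 5 mM sodium caprate, 5 mM amino acid derivative, D-amino acid or peptide, 10 mM ATP, 10 mM MgCl2 and 1 mM DTT in 50 mM Tris-HCl, pH 8.0, for 24 h at 25 °C. After acidic methanol stop, UPLC-MS looked for the mass of the N-caprinoyl product.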

[2] = Synthesis of N-lauroylamino acid / N-lauroylamino acid derivative using purified acylamino acid synthetase, UPLC-MS detection; conditions: +ATP
[3] = Synthesis of N-acylamino acids from various fatty acids using purified acylamino acid synthetase, UPLC-MS detection
Procedure, shortened: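 Purified enzyme (200 μg/mL) with 5 mM amino acid, 5 mM sodium fatty acid (3 mM palmitate or stearate, plus 10% methanol), 10 mM ATP, 10 mM MgCl2, 1 mM DTT in 50 mM Tris-HCl pH 8.0, shaken 24 h at 25 °C. Amino acid varied by enzyme; product mass detected by UPLC-MS (ESI-negative).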

[4] = substrates Carnosine and sodium caprate
[5] = substrates D-Ala and sodium caprate
[6] = substrates D-Asp and sodium caprate
[7] = substrates D-Cys and sodium caprate
[8] = substrates D-Glu and sodium caprate
[9] = substrates D-Ile and sodium caprate
[10] = substrates D-Lys and sodium caprate
[11] = substrates L-Asp-L-Phe and sodium caprate
[12] = substrates L-Gly-L-Gly and sodium caprate
[13] = substrates Sarcosine and sodium caprate
[14] = substrates Taurine and sodium caprate
[15] = substrates Sarcosine and sodium laurate
[16] = substrates Taurine and sodium laurate
[17] = substrates L-Asp and Capric acid
[18] = substrates L-Asp and Caproic acid
[19] = substrates L-Asp and Caprylic acid
[20] = substrates L-Asp and Lauric acid
[21] = substrates L-Asp and Linoleic acid
[22] = substrates L-Asp and Palmitic acid
[23] = substrates L-Asp and myristic acid

Row | Molecule | signal of molecular weight corresponding to N-caprinoyl compound [1, 4] | signal of molecular weight corresponding to N-caprinoyl compound [1, 5] | signal of molecular weight corresponding to N-caprinoyl compound [1, 6] | signal of molecular weight corresponding to N-caprinoyl compound [1, 7] | signal of molecular weight corresponding to N-caprinoyl compound [1, 8] | signal of molecular weight corresponding to N-caprinoyl compound [1, 9] | signal of molecular weight corresponding to N-caprinoyl compound [1, 10] | signal of molecular weight corresponding to N-caprinoyl compound [1, 11] | signal of molecular weight corresponding to N-caprinoyl compound [1, 12] | signal of molecular weight corresponding to N-caprinoyl compound [1, 13] | signal of molecular weight corresponding to N-caprinoyl compound [1, 14] | signal of molecular weight corresponding to N-lauroyl amino acid derivative [2, 15] | signal of molecular weight corresponding to N-lauroyl amino acid derivative [2, 16] | signal of molecular weight corresponding to N-acylamino acid [3, 17] | signal of molecular weight corresponding to N-acylamino acid [3, 18] | signal of molecular weight corresponding to N-acylamino acid [3, 19] | signal of molecular weight corresponding to N-acylamino acid [3, 20] | signal of molecular weight corresponding to N-acylamino acid [3, 21] | signal of molecular weight corresponding to N-acylamino acid [3, 22] | signal of molecular weight corresponding to N-acylamino acid [3, 23]
1 | AtGH3-5: indole-3-acetic acid-amido synthetase GH3.5 from Arabidopsis thaliana, His-tagged (protein, listed as Arabidopsis thaliana, His-tag, indole-3-acetic acid-amido synthetase GH3.5 from Arabidopsis thaliana, His-tagged) MPEAPKKESLEVFDLTLDQKNKQKLQLIEELTSNADQVQRQVLEEILTRNADVEYLRRHDLNGRTDRETFKNIMPVITYEDIEPEINRIANGDKSPILSSKPISEFLTSSGTSGGERKLMPTIEEELDRRSLLYSLLMPVMSQFVPGLENGKGMYFLFIKSESKTPGGLPARPVLTSYYKSSHFKERPYDPYTNYTSPNETILCSDSYQSMYSQMLCGLCQHQEVLRVGAVFASGFIRAIKFLEKHWIELVRDIRTGTLSSLITDPSVREAVAKILKPSPKLADFVEFECKKSSWQGIITRLWPNTKYVDVIVTGTMSQYIPTLDYYSNGLPLVCTMYASSECYFGVNLRPLCKPSEVSYTLIPSMAYFEFLPVHRNNGVTNSINLPKALTEKEQQELVDLVDVKLGQEYELVVTTYAGLCRYRVGDLLRVTGFKNKAPQFSFICRKNVVLSIDSDKTDEVELQNAVKNAVTHLVPFDASLSEYTSYADTSSIPGHYVLFWELCLDGNTPIPPSVFEDCCLAVEESFNTVYRQGRVSDKSIGPLEIKIVEPGTFDKLMDYAISLGASINQYKTPRCVKFAPIIELLNSRVVDSYFSPKCPKWVPGHKQWGSN | + | + | + | + | + | + | + | + | + | + | + | + | + | + | + | + | + | − | + | +
2 | OsGH3-8: probable indole-3-acetic acid-amido synthetase GH3.8 from Oryza sativa, expressed in E. coli with N-terminal His-tag (protein, listed as Oryza sativa, N-terminal His-tag, probable indole-3-acetic acid-amido synthetase GH3.8 from Oryza sativa, expressed in E. coli with N-terminal His-tag) MAVMTDVSTTGTALRTPAAGAVKEGDVEKLRFIDEMTTNVDAVQERVLGEILGRNAGTEYLTKCGLDGATDRAAFRAKVPVVSYDDLQPYIQRIANGDRSPILSTHPVSEFLTSSGTSAGERKLMPTIMDELDRRQLLYSLLMPVMNLYVPGLDKGKGLYFLFVKSETKTPGGLTARPVLTSYYKSDHFKNRPYDPYHNYTSPTAAILCADAFQSMYAQMVCGLCQRNDVLRLGAVFASGLLRAIRFLQLNWEQLADDIESGELTPRVTDPSVREAVAAILLPDPELAKLIRAECSKGDWAGIITRVWPNTKYLDVIVTGAMAQYIPTLEFYSGGLPMACTMYASSECYFGLNLRPMCDPSEVSYTIMPNMGYFEFLPVDETGAASGDATQLVDLARVEVGREYELVITTYAGLNRYRVGDVLRVTGFHNAAPQFRFVRRKNVLLSIESDKTDEAELQRAVERASALLRPHGASVVEYTSQACTKRIPGHYVIYWELLTKGAGATVVDADTLGRCCLEMEEALNTVYRQSRVADGSIGPLEIRVVRPGTFEELMDYAISRGASINQYKVPRCVTFPPIVELLDSRVVSSHFSPALPHWTPARRSE | + | + | + | + | + | + | + | + | + | + | + | − | + | + | + | + | + | − | + | +
3 | AtGH3-12: 4-substituted benzoates-glutamate ligase GH3.12 from Arabidopsis thaliana, His-tagged (protein, listed as Arabidopsis thaliana, His-tag, 4-substituted benzoates-glutamate ligase GH3.12 from Arabidopsis thaliana, His-tagged) MKPIFDINETFEKQLKDLTSNVKSIQDNLLEEIITPNTKTEYLQRFLIDRFDKELFKKNVPIVSYEDIKPYLDRVVNGESSDVISARTITGFLLSSGTSGGAQKMMPWNNKYLDNLTFIYDLRMQVITKHVKGVEEGKGMMFLFTKQESMTPSGLPARVATSSYFKSDYFKNRPSNWYYSYTSPDEVILCPNNTESLYCHLLCGLVQRDEVVRTGSIFASVMVRAIEVLKNSWEELCSNIRSGHLSNWVTDLGCQNSVSLVLGGPRPELADTIEEICNQNSWKGIVKRLWPNTKYIETVVTGSMGQYVPMLNYYCNDLPLVSTTYGSSETTFGINLDPLCKPEDVSYTFMPNMSYFEFIPMDGGDKNDVVDLEDVKLGCTYEPVVTNFAGLYRMRVGDIVLVTGFYNNAPQFKFVRRENVVLSIDSDKTNEEDLFKAVSQAKLVLESSGLDLKDFTSYADTSTFPGHYVVYLEVDTKEGEEKETAQFELDEEALSTCCLVMEESLDNVYKRCRFKDGSIGPLEIRVVRQGTFDSLMDFFISQGASTGQYKTPRCIKSGKALQVLETCVVAKFFSI | + | + | + | − | + | + | + | + | + | + | + | − | + | + | + | + | + | + | + | +
